In US20230027540A1 one finds fold reduction in potency (EC50 of STAT4 phosphorylation) relative to WT IL-12-Fc XENP27201 data, which are given here for three substances.

The target of this experiment is IL-12 receptor complex composed of IL-12 receptor β1 (IL-12Rβ1) and IL-12 receptor β2 (IL-12Rβ2) (human) (UniProt P42701). As to the kind of experiment: cell-based or functional assay.
Chain of IL-12 receptor complex composed of IL-12 receptor β1 (IL-12Rβ1) and IL-12 receptor β2 (IL-12Rβ2) (human) (Q99665 24-862, chain 2 of 2, other chains not shown): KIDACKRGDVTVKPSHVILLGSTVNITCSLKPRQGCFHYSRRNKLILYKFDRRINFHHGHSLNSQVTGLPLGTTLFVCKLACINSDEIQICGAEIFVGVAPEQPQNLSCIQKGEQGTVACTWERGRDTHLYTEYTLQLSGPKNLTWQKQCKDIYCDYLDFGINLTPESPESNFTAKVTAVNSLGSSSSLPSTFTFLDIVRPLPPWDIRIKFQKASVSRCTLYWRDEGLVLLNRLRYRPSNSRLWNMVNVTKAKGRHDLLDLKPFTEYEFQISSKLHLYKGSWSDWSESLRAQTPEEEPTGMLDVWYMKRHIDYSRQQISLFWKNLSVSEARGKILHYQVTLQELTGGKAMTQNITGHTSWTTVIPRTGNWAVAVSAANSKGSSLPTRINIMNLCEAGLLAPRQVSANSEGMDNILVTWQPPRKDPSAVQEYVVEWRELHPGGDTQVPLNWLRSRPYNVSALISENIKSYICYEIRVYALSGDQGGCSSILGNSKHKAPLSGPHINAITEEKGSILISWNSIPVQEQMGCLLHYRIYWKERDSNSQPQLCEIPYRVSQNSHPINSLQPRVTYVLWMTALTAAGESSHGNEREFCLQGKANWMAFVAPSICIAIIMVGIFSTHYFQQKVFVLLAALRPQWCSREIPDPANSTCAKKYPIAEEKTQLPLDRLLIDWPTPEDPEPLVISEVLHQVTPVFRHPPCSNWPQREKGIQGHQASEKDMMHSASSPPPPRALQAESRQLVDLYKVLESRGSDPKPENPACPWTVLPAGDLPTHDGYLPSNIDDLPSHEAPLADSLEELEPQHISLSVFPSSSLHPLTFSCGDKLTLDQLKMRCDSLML
On to “IL-12-Fc fusion comprising IL-12p35(D55Q/N151D)”, for which the fold reduction in potency (EC50 of STAT4 phosphorylation) relative to WT IL-12-Fc XENP27201 turned out to be 2 fold.

Regarding “IL-12-Fc fusion comprising IL-12p35(E153Q)”, the fold reduction in potency (EC50 of STAT4 phosphorylation) relative to WT IL-12-Fc XENP27201 is > 2 fold.

On to “IL-12-Fc fusion comprising IL-12p40(E235Q)”, for which the fold reduction in potency (EC50 of STAT4 phosphorylation) relative to WT IL-12-Fc XENP27201 was > 2 fold.
